This experiment has as its target replication protein A (RPA) heterotrimer, full-length (UniProt P15927). Nature of the experiment: FluorIA.

B1: RAD52(1-303) (domain or fragment)
chain: MSGTEEAILGGRDSHPAAGGGSVLCFGQCQYTAEEYQAIQKALRQRLGPEYISSRMAGGGQKVCYIEGHRVINLANEMFGYNGWAHSITQQNVDFVDLNNGKFYVGVCAFVRVQLKDGSYHEDVGYGVSEGLKSKALSLEKARKEAVTDGLKRALRSFGNALGNCILDKDYLRSLNKLPRQLPLEVDLTKAKRQDLEPSVEEARYNSCRPNMALGHPQLQQVTSPSRPSHAVIPADQDCSSRSLSSSAVESEATHQRKLRQKQLQQQFRERMEKQQVRVSTPSAEKSEAAPPAPPVTHSTPVT
Consider B1, for which the percent inhibition of EGFP-RAD52 binding at a molar ratio of 1:1 turned out to be 50%.

B2: Full-length RAD52 tagged with 6X-His enhanced green fluorescent protein (EGFP-RAD52) (natural protein)
chain: MSGTEEAILGGRDSHPAAGGGSVLCFGQCQYTAEEYQAIQKALRQRLGPEYISSRMAGGGQKVCYIEGHRVINLANEMFGYNGWAHSITQQNVDFVDLNNGKFYVGVCAFVRVQLKDGSYHEDVGYGVSEGLKSKALSLEKARKEAVTDGLKRALRSFGNALGNCILDKDYLRSLNKLPRQLPLEVDLTKAKRQDLEPSVEEARYNSCRPNMALGHPQLQQVTSPSRPSHAVIPADQDCSSRSLSSSAVESEATHQRKLRQKQLQQQFRERMEKQQVRVSTPSAEKSEAAPPAPPVTHSTPVTVSEPLLEKDFLAGVTQELIKTLEDNSEKWAVTPDAGDGVVKPSSRADPAQTSDTLALNNQMVTQNRTPHSVCHQKPQAKSGSWDLQTYSADQRTTGNWESHRKSQDMKKRKYDPS
In the case of B2, the RFU (NC, no inhibitor) was 17100 RFU.

The values are drawn from article PMC7968734.
